Data as given in patent publication US20230220042A1 (SHANGHAI JIAO TONG UNIVERSITY SCHOOL OF MEDICINE, published 2023).

T1: Biotin-FcγRIIB (human FcγRIIB, Sino Biological) (human, UniProt P31994 43-217, limits assumed, biotin-labeled)
T1 construct: Used at 1 µg/ml with Streptavidin-APC for flow cytometry and sorting; also called CD32b
T1 sequence (looked up): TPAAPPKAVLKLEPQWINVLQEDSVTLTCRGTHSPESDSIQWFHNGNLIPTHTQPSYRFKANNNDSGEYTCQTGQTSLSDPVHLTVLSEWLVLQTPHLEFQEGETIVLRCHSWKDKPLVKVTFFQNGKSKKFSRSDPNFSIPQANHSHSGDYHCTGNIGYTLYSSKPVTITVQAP

B1: human IgG2 anti-mouse CD40 surface displayed antibody, P271G/S298R (antibody, name in EU numbering)
light chain (with the P2A rest): DTVLTQSPALAVSPGERVTISCRASDSVSTLMHWYQQKPGQQPKLLIYLASHLESGVPARFSGSGSGTDFTLTIDPVEADDTATYYCQQSWNDPWTFGGGTKLELKRTVAAPSVFIFPPSDEQLKSGTASVVCLLNNFYPREAKVQWKVDNALQSGNSQESVTEQDSKDSTYSLSSTLTLSKADYEKHKVYACEVTHQGLSSPVTKSFNRGECGSGATNFSLLKQAGDVEENPG
heavy chain: EVQLVESDGGLVQPGRSLKLPCAASGFTFSDYYMAWVRQAPTKGLEWVASISYDGSSTYYRDSVKGRFTISRDNAKSTLYLQMDSLRSEDTATYYCGRHSSYFDYWGQGVMVTVSSASTKGPSVFPLAPCSRSTSESTAALGCLVKDYFPEPVTVSWNSGALTSGVHTFPAVLQSSGLYSLSSVVTVPSSNFGTQTYTCNVDHKPSNTKVDKTVERKCCVECPPCPAPPVAGPSVFLFPPKPKDTLMISRTPEVTCVVVDVSHEDGEVQFNWYVDGVEVHNAKTKPREEQFNRTFRVVSVLTVVHQDWLNGKEYKCKVSNKGLPAPIEKTISKTKGQPREPQVYTLPPSREEMTKNQVSLTCLVKGFYPSDIAVEWESNGQPENNYKTTPPMLDSDGSFFLYSKLTVDKSRWQQGNVFSCSVMHEALHNHYTQKSLSLSPGKLEPPPSTVSNMATVAVLVVLGAAIVTGAVVAFVMKMRRRNTGGKGGDYALAPGSQTSDLSLPDCKVMVHDPHSLA
notes: m1 with these Fc mutations (Eu numbering); copies: 2 + 2
B2: human IgG2 anti-mouse CD40 surface displayed antibody, P271G/T299A (antibody, name in EU numbering)
light chain (with the P2A rest): DTVLTQSPALAVSPGERVTISCRASDSVSTLMHWYQQKPGQQPKLLIYLASHLESGVPARFSGSGSGTDFTLTIDPVEADDTATYYCQQSWNDPWTFGGGTKLELKRTVAAPSVFIFPPSDEQLKSGTASVVCLLNNFYPREAKVQWKVDNALQSGNSQESVTEQDSKDSTYSLSSTLTLSKADYEKHKVYACEVTHQGLSSPVTKSFNRGECGSGATNFSLLKQAGDVEENPG
heavy chain: EVQLVESDGGLVQPGRSLKLPCAASGFTFSDYYMAWVRQAPTKGLEWVASISYDGSSTYYRDSVKGRFTISRDNAKSTLYLQMDSLRSEDTATYYCGRHSSYFDYWGQGVMVTVSSASTKGPSVFPLAPCSRSTSESTAALGCLVKDYFPEPVTVSWNSGALTSGVHTFPAVLQSSGLYSLSSVVTVPSSNFGTQTYTCNVDHKPSNTKVDKTVERKCCVECPPCPAPPVAGPSVFLFPPKPKDTLMISRTPEVTCVVVDVSHEDGEVQFNWYVDGVEVHNAKTKPREEQFNSAFRVVSVLTVVHQDWLNGKEYKCKVSNKGLPAPIEKTISKTKGQPREPQVYTLPPSREEMTKNQVSLTCLVKGFYPSDIAVEWESNGQPENNYKTTPPMLDSDGSFFLYSKLTVDKSRWQQGNVFSCSVMHEALHNHYTQKSLSLSPGKLEPPPSTVSNMATVAVLVVLGAAIVTGAVVAFVMKMRRRNTGGKGGDYALAPGSQTSDLSLPDCKVMVHDPHSLA
notes: as for B1
B3: human IgG2 anti-mouse CD40 surface displayed antibody, P271G/T299M (antibody, name in EU numbering)
light chain (with the P2A rest): DTVLTQSPALAVSPGERVTISCRASDSVSTLMHWYQQKPGQQPKLLIYLASHLESGVPARFSGSGSGTDFTLTIDPVEADDTATYYCQQSWNDPWTFGGGTKLELKRTVAAPSVFIFPPSDEQLKSGTASVVCLLNNFYPREAKVQWKVDNALQSGNSQESVTEQDSKDSTYSLSSTLTLSKADYEKHKVYACEVTHQGLSSPVTKSFNRGECGSGATNFSLLKQAGDVEENPG
heavy chain: EVQLVESDGGLVQPGRSLKLPCAASGFTFSDYYMAWVRQAPTKGLEWVASISYDGSSTYYRDSVKGRFTISRDNAKSTLYLQMDSLRSEDTATYYCGRHSSYFDYWGQGVMVTVSSASTKGPSVFPLAPCSRSTSESTAALGCLVKDYFPEPVTVSWNSGALTSGVHTFPAVLQSSGLYSLSSVVTVPSSNFGTQTYTCNVDHKPSNTKVDKTVERKCCVECPPCPAPPVAGPSVFLFPPKPKDTLMISRTPEVTCVVVDVSHEDGEVQFNWYVDGVEVHNAKTKPREEQFNSMFRVVSVLTVVHQDWLNGKEYKCKVSNKGLPAPIEKTISKTKGQPREPQVYTLPPSREEMTKNQVSLTCLVKGFYPSDIAVEWESNGQPENNYKTTPPMLDSDGSFFLYSKLTVDKSRWQQGNVFSCSVMHEALHNHYTQKSLSLSPGKLEPPPSTVSNMATVAVLVVLGAAIVTGAVVAFVMKMRRRNTGGKGGDYALAPGSQTSDLSLPDCKVMVHDPHSLA
notes: as for B1

Molecular target: T1, Biotin-FcγRIIB (human FcγRIIB, Sino …)
Experiment: NGS after FACS sort of 3T3-displayed LibraryMix for biotin-FcγRIIB binding

Compared with B1, B2 is lower in “Enrichment factor (percentage after sorting/percentage before sorting)” value: 16 for the first, 6.28 for the second.

For B3, the “Enrichment factor (percentage after sorting/percentage before sorting)” value was 4.74.

Going from B1 to B2, the “Increased factor (enrichment factor/wild-type enrichment factor)” value falls from 21.4 to 8.39.

With B3 the “Increased factor (enrichment factor/wild-type enrichment factor)” value was 6.33.
